Assay results taken from publication PMC4323944 (Journal of molecular biology, 2014).
Substitutions are numbered along the chain they refer to. Numbers in names are those of the source.

T1: T. maritima FliM middle domain (FliMM, residues 46-242) (Thermotoga maritima, UniProt Q9WZE6 46-242)
T1 sequence (looked up): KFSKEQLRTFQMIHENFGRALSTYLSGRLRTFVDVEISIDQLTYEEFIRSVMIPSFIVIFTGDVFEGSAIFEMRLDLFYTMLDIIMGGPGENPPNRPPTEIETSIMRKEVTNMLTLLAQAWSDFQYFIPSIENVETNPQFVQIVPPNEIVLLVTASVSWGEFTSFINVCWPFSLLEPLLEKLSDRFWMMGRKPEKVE

B1: FliG Q129W 160-R1 (FliGMC Q129W K160C, MTSSL spin-labeled) (domain or fragment, Thermotoga maritima, UniProt Q9WY63 116-335, looked up)
chain: PVQLVNFLQSEHPWTIAVVLSYLDPPVAAQILGALPEELQTEVLCRIALLERTSPEVVKEIERNLEKKISGFVSRTFSKVGGIDTAAEIMNNLDRTTEKKIMDKLVQENPELADEIRRRMFVFEDILKLDDRSIQLVLREVDTRDLALALKGASDELKEKIFKNMSKRAAALLKDELEYMGPVRLKDVEEAQQKIINIIRRLEEAGEIVIARGGGEELIM
modifications: nitroxide side chain R1 (MTSSL on Cys 160)
B2: FliG 160-R1 (FliGMC K160C, MTSSL spin-labeled) (domain or fragment, Thermotoga maritima, UniProt Q9WY63 116-335, looked up)
chain: B1 chain with W14Q
modifications: nitroxide side chain R1 (MTSSL on Cys 160)
B3: FliG 174-R1 (FliGMC K174C, MTSSL spin-labeled) (domain or fragment, Thermotoga maritima, UniProt Q9WY63 116-335, looked up)
chain: B1 chain with W14Q, C45K, K59C
modifications: nitroxide side chain R1 (MTSSL on Cys 174)
B4: T. maritima FliG middle domain (FliGM, residues 117-195) (domain or fragment, Thermotoga maritima, UniProt Q9WY63 117-195, looked up)
chain: VQLVNFLQSEHPQTIAVVLSYLDPPVAAQILGALPEELQTEVLKRIALLERTSPEVVKEIERNLEKKISGFVSRTFSKV

What was measured:
[1] = target: the molecule itself; experiment: pulsed dipolar ESR spectroscopy
[2] = target: the molecule itself; experiment: SEC-MALS
[3] = target: T1, T. maritima FliM middle domain (FliMM, …); experiment: crystal structure

Row | Binder | binding result [1] | also measured
1 | B1 | binds | –
2 | B2 | – | stoichiometry N [2]: 2
3 | B3 | binds | –
4 | B4 | – | binding result [3]: binds
